Results published in JP2015180626A (dated 2015).

Target: RSV Fタンパク質 (RSV A2ウイルス) (respiratory syncytial virus (RSV) A2, UniProt P03420 26-574)
Assay: cell-based or functional assay

Chain of RSV Fタンパク質 (RSV A2ウイルス) (P03420 26-574): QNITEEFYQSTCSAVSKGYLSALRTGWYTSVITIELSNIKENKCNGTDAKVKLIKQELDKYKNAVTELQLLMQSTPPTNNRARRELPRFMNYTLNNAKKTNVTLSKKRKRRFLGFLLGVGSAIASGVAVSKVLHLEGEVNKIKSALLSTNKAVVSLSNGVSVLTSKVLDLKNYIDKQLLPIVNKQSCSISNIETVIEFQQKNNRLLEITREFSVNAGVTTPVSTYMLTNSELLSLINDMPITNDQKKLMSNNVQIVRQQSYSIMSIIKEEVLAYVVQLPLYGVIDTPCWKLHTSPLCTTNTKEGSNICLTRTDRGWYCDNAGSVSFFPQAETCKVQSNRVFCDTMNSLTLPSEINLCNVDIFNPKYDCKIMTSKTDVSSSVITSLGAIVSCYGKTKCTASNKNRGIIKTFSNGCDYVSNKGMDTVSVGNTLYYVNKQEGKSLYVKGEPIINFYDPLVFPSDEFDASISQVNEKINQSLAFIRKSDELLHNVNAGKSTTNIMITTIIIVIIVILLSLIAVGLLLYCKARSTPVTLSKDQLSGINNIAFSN

B1: AM22 (antibody, V domains shown)
VH: QVQLVQSGAEVKKPGATVKVSCKISGHTLIKLSIHWVRQAPGKGLEWMGGYEGEVDEIFYAQKFQHRLTVIADTATDTVYMELGRLTSDDTAVYFCGTLGVTVTEAGLGIDDYWGQGTLVTVSS
VL: EIVLTQSPGTLSLSPGERATLSCRASQIVSRNHLAWYQQKPGQAPRLLIFGASSRATGIPVRFSGSGSGTDFTLTINGLAPEDFAVYYCLSSDSSIFTFGPGTKVDFK
  RSV-A2ウイルスに対する中央値半分最大阻害濃度(IC 50 ) (neutralisation of RSV A2 on HEp2 cells): 1.15 ng/mL
